The record followed here is the supplement of paper PMC9112550, “Optimization of the antimicrobial peptide Bac7 by deep mutational scanning” (BMC Biology, 2022).

The subject of this data set is Escherichia coli TOP10. Kind of data set: shrunken log2 fold change of peptide-encoding DNA abundance (4.5 h post-induction vs induction); higher = less antimicrobial activity (less host growth inhibition). Particulars: time post-induction: 4.5 h; library: site-saturation at positions 5, 18, 19, 20.
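Also: peptides expressed intracellularly from a pBAD plasmid library in pooled LB shake-flask culture, induced with 0.3% L-arabinose, DNA abundance read by NGS, three biological replicates, DESeq2 with apeglm shrinkage.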

Take RRIRARPPRLPRPRPRPGWAPRP: the “shrunken log2 fold change” value is 0.72. To RRIRNRPPRLPRPRPRPTAAPRP belongs 0.543; to RRIRWRPPRLPRPRPRPETNPRP, 0.187. To RRIRLRPPRLPRPRPRPSWAPRP belongs -0.098; to RRIRMRPPRLPRPRPRPRWRPRP, 0.732; to RRIRCRPPRLPRPRPRPCPAPRP, -0.178. RRIRMRPPRLPRPRPRPISKPRP: the “shrunken log2 fold change” value came to 0.316.

Regarding RRIRWRPPRLPRPRPRPGGIPRP, the “shrunken log2 fold change” value worked out at 0.22. Then RRIRIRPPRLPRPRPRPLSGPRP, with -0.0874; and RRIRNRPPRLPRPRPRPFFSPRP, with -0.14; and RRIRGRPPRLPRPRPRPEKKPRP, with 0.102. Then RRIRWRPPRLPRPRPRPQTVPRP, with -0.0322; and RRIRQRPPRLPRPRPRPLIHPRP, with -0.708. Then RRIRQRPPRLPRPRPRPMPKPRP, with 0.128. RRIRQRPPRLPRPRPRPNCPPRP: the “shrunken log2 fold change” value stood at 0.0556. Then RRIRTRPPRLPRPRPRPHYGPRP, with -0.0891. Then RRIRERPPRLPRPRPRPFLWPRP, with 0.155; and RRIRFRPPRLPRPRPRPDEGPRP, with 0.101. Then RRIRLRPPRLPRPRPRPNQPPRP, with 0.0224; and RRIRDRPPRLPRPRPRPHNMPRP, with -0.135; and RRIRRRPPRLPRPRPRPWTDPRP, with -0.131. Regarding RRIRKRPPRLPRPRPRPHTHPRP, the “shrunken log2 fold change” value is -0.0896. To RRIRHRPPRLPRPRPRPTMWPRP belongs 0.22; to RRIRTRPPRLPRPRPRPSMPPRP, -0.363; to RRIRHRPPRLPRPRPRPHRCPRP, 0.0171.

RRIRDRPPRLPRPRPRPDCAPRP: the “shrunken log2 fold change” value turned out to be 1.41.

As to RRIRWRPPRLPRPRPRPRYYPRP, the “shrunken log2 fold change” value was -0.0581. Consider RRIRCRPPRLPRPRPRPGKIPRP, for which the “shrunken log2 fold change” value is -0.399. Regarding RRIRSRPPRLPRPRPRPTNLPRP, the “shrunken log2 fold change” value is -0.215. For the sequence RRIRTRPPRLPRPRPRPDYRPRP, the “shrunken log2 fold change” value was determined as 0.0112. As to RRIRQRPPRLPRPRPRPPVVPRP, the “shrunken log2 fold change” value was 0.126. Then RRIRSRPPRLPRPRPRPCVIPRP, with -0.172; and RRIRDRPPRLPRPRPRPVTYPRP, with -0.0305. To RRIRERPPRLPRPRPRPMINPRP belongs -0.0967. To RRIRTRPPRLPRPRPRPCGFPRP belongs 0.268; to RRIRCRPPRLPRPRPRPEEIPRP, -0.0231. For the sequence RRIRLRPPRLPRPRPRPCAGPRP, the “shrunken log2 fold change” value was determined as 0.0736. On to RRIRARPPRLPRPRPRPVGKPRP, for which the “shrunken log2 fold change” value stood at 0.196. To RRIRARPPRLPRPRPRPPNWPRP belongs 0.59; to RRIRGRPPRLPRPRPRPPCKPRP, 0.339; to RRIRCRPPRLPRPRPRPMPRPRP, 0.0702. To RRIRSRPPRLPRPRPRPNNYPRP belongs -0.597; to RRIRLRPPRLPRPRPRPKKLPRP, 0.111.

For RRIRWRPPRLPRPRPRPLAVPRP, the “shrunken log2 fold change” value is 0.541. Regarding RRIRMRPPRLPRPRPRPGYMPRP, the “shrunken log2 fold change” value was 0.0502.

As for RRIRYRPPRLPRPRPRPGGFPRP, the “shrunken log2 fold change” value is -0.169. To RRIRQRPPRLPRPRPRPWIAPRP belongs -0.161; to RRIRKRPPRLPRPRPRPGTEPRP, 0.542; to RRIRERPPRLPRPRPRPNRTPRP, -1.51. Then RRIRSRPPRLPRPRPRPKGYPRP, with 0.00982.

Take RRIRYRPPRLPRPRPRPLCEPRP: the “shrunken log2 fold change” value was -0.238. For RRIRPRPPRLPRPRPRPMCAPRP, the “shrunken log2 fold change” value was determined as 0.159. To RRIRQRPPRLPRPRPRPPPMPRP belongs 0.558; to RRIRERPPRLPRPRPRPMWFPRP, -0.159; to RRIRWRPPRLPRPRPRPCQIPRP, -0.0592. Then RRIRNRPPRLPRPRPRPSDKPRP, with -0.363. To RRIRARPPRLPRPRPRPQGTPRP belongs 0.451. As for RRIRRRPPRLPRPRPRPGSIPRP, the “shrunken log2 fold change” value is -0.0979. To RRIRTRPPRLPRPRPRPYVKPRP belongs -0.221; to RRIRQRPPRLPRPRPRPVDPPRP, -0.0233. Then RRIRTRPPRLPRPRPRPWLVPRP, with -0.0639; and RRIRFRPPRLPRPRPRPFEAPRP, with -0.105; and RRIRCRPPRLPRPRPRPWYKPRP, with -1.01.
